Results taken from IntAct's records for PubMed 22927646.

B1: Isoform 2 of Acid ceramidase (Homo sapiens), Q13510-2 (parent)
chain: MNCCIGLGEKARGSHRASYPSLSALFTEASILGFGSFAVKAQWTEDCRKSTYPPSGPTYRGAVPWYTINLDLPPYKRWHELMLDKAPVLKVIVNSLKNMINTFVPSGKIMQVVDEKLPGLLGNFPGPFEEEMKGIAAVTDIPLGEIISFNIFYELFTICTSIVAEDKKGHLIHGRNMDFGVFLGWNINNDTWVITEQLKPLTVNLDFQRNNKTVFKASSFAGYVGMLTGFKPGLFSLTLNERFSINGGYLGILEWILGKKDVMWIGFLTRTVLENSTSYEEAKNLLTKTKILAPAYFILGGNQSGEGCVITRDRKESLDVYELDAKQGRWYVVQTNYDRWKHPFFLDDRRTPAKMCLNRTSQENISFETMYDVLSTKPVLNKLTVYTTLIDVTKGQFETYLRDCPDPCIGW

Variants of: B1
Settings: with stf1_human NR5A1, Q13285
stf1_human NR5A1, Q13285, sequence (Q13285 whole entry): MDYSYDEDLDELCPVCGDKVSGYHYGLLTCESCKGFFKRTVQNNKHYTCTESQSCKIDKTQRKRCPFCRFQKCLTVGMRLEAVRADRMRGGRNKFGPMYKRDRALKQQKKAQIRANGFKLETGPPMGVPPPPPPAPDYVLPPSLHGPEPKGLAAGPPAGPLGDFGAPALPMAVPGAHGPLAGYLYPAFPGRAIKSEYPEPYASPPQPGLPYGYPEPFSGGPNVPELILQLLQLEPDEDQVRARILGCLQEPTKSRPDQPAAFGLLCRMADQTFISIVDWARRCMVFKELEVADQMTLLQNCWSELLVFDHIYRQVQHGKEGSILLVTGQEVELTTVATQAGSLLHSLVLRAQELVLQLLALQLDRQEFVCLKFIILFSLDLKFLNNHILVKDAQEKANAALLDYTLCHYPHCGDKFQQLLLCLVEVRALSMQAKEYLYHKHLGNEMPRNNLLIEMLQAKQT

Row | Variant | effect of a mutation on the interaction
1 | L22A;L25A | disrupting interaction strength
